Laboratory results as given in article PMC10858199, “Amyloid-β aggregates activate peripheral monocytes in mild cognitive impairment” (Nature Communications, 2024).

Experiments:
[1] = biological target: synthetic, predominantly monomeric amyloid-β (M-Aβ) (human) (UniProt P05067); assay: SPR; BIAcore 3000, CM-4 chips; monomeric Aβ, aggregated Aβ (100 fmol Aβ42/mm^2) or iC3b amine-coupled; I domains injected at 20-10000 nM in 150 mM NaCl, 1 mM MgCl2, 5.0 mM HEPES (pH 7.4); contact 180 s, dissociation 400 s; two-dimensional distribution of 1:1 interactions fitted with EVILFIT
[2] = biological target: in vitro-aggregated amyloid-β (A-Aβ) (human) (UniProt P05067); assay: as above

With “CR3 I domain, stabilized in the activated conformation (domain or fragment)” the Kd [1] was 79 µM.
“CR4 I domain, stabilized in the activated conformation (from UniProt P20702 20-1101) (domain or fragment)” showed a KD, high-affinity class of binding sites [2] of 0.016 nM, a koff, high-affinity class of binding sites [2] of 0.00025 s⁻¹ and a koff, moderate-affinity class of binding sites [2] of 5e-05 s⁻¹.
